# Results reported in patent US20050249698A1 (priority 2002, published 2005).
# B1: rhG-CSF: commercially available recombinant human granulocyte colony stimulating factor (protein, UniProt P09919 31-207, looked up)
# Granulocyte …: TPLGPASSLPQSFLLKCLEQVRKIQGDGAALQEKLVSECATYKLCHPEELVLLGHSLGIPWAPLSSCPSQALQLAGCLSQLHSGLFLYQGLLQALEGISPELGPTLDTLQLDVADFATTIWQQMEELGMAPALQPTQGAMPAFASAFQRRAGGVLVASHLQSFLEVSYRVLRHLAQP
# What was measured:
# Assay type in all cases: in vivo, Balb/c mice
# normal mice [1] = assay: Test 1: pathologic observation of spleen sections; conditions: 14th day, Test 1, FIG. 4
# Description: (§1) The clean grade of the Balb/c mice, weighed from 16 to 18 g, were used and randomly grouped, 7-10 mice per group. The tests were carried out in two batches.
# (§2) The mice were divided into 4 groups.
# (§3) The mice in each group were sacrificed on the 14th day.
# (§4) The detection indexes were as follows: • (1) The counts of the peripheral blood leucocytes (WBC), the peripheral blood lymphocytes (LY), red blood cells (RBCs) and the change of platelet were determined for each group on the first day (no drug was administered), the 5th, 8th, 10th, 12th and 14th day. • (2) The counts of marrow karyotes (BMNC) of the mice in each group and the change of the classification of the marrow were determined on the 14th day. • (3) The sections of the sternum of the mice in each group were determined on the 14th day. • (4) The weights of the spleens of the mice in each group and the sections of the […] were determined on the 14th day.
# normal mice [2] = assay: Test 2: marrow karyote count of the thighbone; conditions: 11th day, Test 2, simultaneous administration; x±SE
# Description: as §1, §2
# (§5) The mice in each group were sacrificed on the eleventh day.
# (§6) The detection indexes were as follows: • (1) The counts of the peripheral blood leucocytes of the mice in each group were determined on the first day (no drug was administered), the 3rd, 5th, 7th, 9th and 11th day. • (2) The counts of marrow karyotes (BMNC) of the mice in each group were determined on the 11th day. • (3) The weights of the spleens of the mice in each group were determined on the 11th day.
# normal mice [3] = assay: Test 1: pathologic observation of breastbone (sternum) sections; conditions: 14th day, Test 1, FIG. 3
# Description: as §1, §2, §3, §4
# normal mice [4] = assay: Test 1: spleen weight
# Description: as §1, §2, §3, §4
# normal mice [5] = assay: Test 1: peripheral blood cell counts, sOGP for 5 days then sOGP and rhG-CSF co-administered
# Description: as §1, §2, §3, §4
# normal mice [6] = assay: Test 2: spleen weight
# Description: as §1, §2, §5, §6
# normal mice [7] = assay: Test 1: marrow karyote count and classification of the thighbone; conditions: 14th day, x±SE
# Description: as §1, §2, §3, §4
# [8] = Test 1, sOGP 5 days then co-administration, x±SE
molecule,measurement,setting,value
B1,spleen section: matured granulocytes as share of the granulocytes,normal mice [1],about 60%
same,spleen section: megakaryocyte cell line,normal mice [1],moderately proliferated
same,spleen section: red matter,normal mice [1],proliferated moderately
same,spleen section: white matter,normal mice [1],lightly to moderately shrunk
same,karyote number/thighbone,normal mice [2],1.75 ± 0.12 ×10^7
same,pathologic observation of bone marrow cells in breastbone section,normal mice [3],the proliferation of the bone marrow cells and the ratios among the three cell lines were normal
same,spleen weight,"normal mice [4]; 14th day, Test 1, x±SE",0.252 ± 0.007 g
same,"spleen weight compared with the other two groups (control, sOGP)","normal mice [4]; Test 1, Table 3",significantly higher
same,% leucocyte granulocyte,normal mice [5]; [8],70.39 ± 1.54%
same,% leucocyte lymphocyte,normal mice [5]; [8],29.61 ± 1.54%
same,leucocyte,"normal mice [5]; Test 1, x±SE",17.59 ± 1.59 ×10^6/ml
same,platelet,"normal mice [5]; Test 1, x±SE",505.43 ± 35.34 ×10^6/ml
same,red blood cell,"normal mice [5]; Test 1, x±SE",6.68 ± 0.10 ×10^9/ml
same,spleen weight,"normal mice [6]; 11th day, Test 2, simultaneous administration, x±SE",0.244 ± 0.017 g
same,"spleen weight compared with the other two groups (control, sOGP)","normal mice [6]; Test 2, Table 5",significantly higher
same,karyote/thighbone,normal mice [7],1.90 ± 0.13 ×10^7
same,marrow: early erythroblast,normal mice [7]; thighbone marrow,2.50 ± 0.33%
same,marrow: intermediate erythroblast,normal mice [7]; thighbone marrow,12.13 ± 1.92%
same,marrow: late erythroblast,normal mice [7]; thighbone marrow,16.00 ± 2.11%
same,"marrow: lymphocyte, plasma cell",normal mice [7]; thighbone marrow,19.38 ± 2.00%
same,marrow: matured granulocyte,normal mice [7]; thighbone marrow,30.83 ± 2.77%
same,"marrow: myelocyte, metamyelocyte",normal mice [7]; thighbone marrow,11.00 ± 1.00%
same,marrow: primitive granulocyte,normal mice [7]; thighbone marrow,0.63 ± 0.36%
same,marrow: promyelocyte,normal mice [7]; thighbone marrow,1.88 ± 0.44%
